Source: article PMC10967632, “Anti-CD99 Antibody Therapy Triggers Macrophage-Dependent Ewing Cell Death In Vitro and Myeloid Cell Recruitment In Vivo” (Antibodies, 2024)

B1: NOA3, anti-CD99 monoclonal antibody (IgG1) (antibody, V domains shown)
VH: EVQLVQSGAEVKKPGESLKIACKGSGYSFSKYWIGWVRQMPGKGLEWMGIIYPGDSDTRYSPSFQGQVTISVDTSISTAYLQWSSLKASDTAIYYCARHLRNFGDAFDIWGQGTTVTVSS
VL: SYELTQPPSVSVSPGQTARITCSGDALPKQYAYWYQQKPGQSPVLVIYQDSKRPSGIPERFSGSNSGNTATLTISGTQAMDEADYYCQAWDSSTAFGGGTKLTVL
notes: constant region IgG1; IgG1; isolated by phage display
B2: soluble human CD99 (coated on the ELISA plate) (natural protein, UniProt P14209 23-122, looked up)
chain: DGGFDLSDALPDNENKKPTAIPKKPSAGDDFDLGDAVVDGENDDPRPPNPPKPMPNPNPNHPSSSGSFSDADLADGVSGGEGKGGSDGGGSHRKEGEEAD
notes: human CD99, soluble; May be the same CD99-Fc (G&P Biosciences) as m6

What was measured:
[1] = target: T1, CD99 (or MIC2), 32 kDa type I membrane glycoprotein, on cells (Homo sapiens, UniProt P14209); assay: flow cytometry on cells; Ewing sarcoma cells incubated with anti-CD99 IgG1 (2 µg/mL; NOA1 10 µg/mL; NOA2 also titrated) for one hour at 4 °C, then FITC-conjugated mouse anti-human IgG; CD99-negative Kelly neuroblastoma cells as negative control; conditions: one partner purified
T1 construct: CD99 (MIC2), human, endogenous on the cell surface; also called Ewing CD99; macrophage CD99; source: endogenous, on human Ewing sarcoma cell lines (A673, TC32, CADO-ES1, TC71, TTC466); endogenous, on monocytes derived from human PBMCs

[2] = target: T2, Human His-tagged PILRα, extracellular domain (human, UniProt Q9UKJ1 20-197); assay: ELISA; plate coated with 2 µg/mL human CD99, PILRα at 0.25 to 5 µg/mL, detected with an anti-PILRα antibody and HRP-bound secondary; conditions: both partners purified
T2 construct: PILRα, human, extracellular domain; Band at 55 kDa on SDS-PAGE; also called human PILRα; source: Expi293F, transfected (pcDNA3.4), purified from the supernatant (HisPur Ni-NTA column)
T2 sequence (Q9UKJ1 20-197): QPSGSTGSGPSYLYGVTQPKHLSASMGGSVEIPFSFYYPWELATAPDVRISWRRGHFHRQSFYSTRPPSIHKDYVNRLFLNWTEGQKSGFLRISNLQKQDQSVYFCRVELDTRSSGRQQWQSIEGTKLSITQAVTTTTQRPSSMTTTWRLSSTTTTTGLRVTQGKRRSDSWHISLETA

Row | Binder | binding result [1] | binding result [2]
1 | B1 | binds | 
2 | B2 |  | binds
